Reference: US20210388337A1, “PROTEIN-POLYMER CONJUGATES AND METHODS FOR THEIR PREPARATION” (Carnegie Mellon University, priority 2018, published 2021)

Molecular target: Biotin-aprotinin (UniProt P00974)
Experiment: stopped-flow tryptophan fluorescence, avidin 0.5 µM, biotin-protein 5.0 µM

Chain of Native avidin (P02701 25-152 limits assumed): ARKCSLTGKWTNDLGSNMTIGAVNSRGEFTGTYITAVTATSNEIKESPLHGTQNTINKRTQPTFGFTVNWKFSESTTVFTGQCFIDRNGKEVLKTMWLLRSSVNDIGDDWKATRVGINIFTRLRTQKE

Native avidin (from UniProt P02701 25-152)
k (kobs, observed first-order rate constant): 73.5 s⁻¹
